± gives the standard deviation of the averaged measurements.
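Note: PSI is a weighted mean of sequencing reads over stability bins, variants kept only with over 10 reads, mCherry proximal and sfGFP distal, peptide attached via GGGS linker.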

The test system of the data set is Saccharomyces cerevisiae. In words: protein stability index of tFT-peptide fusion (C-terminal peptide) (PSI (0-1 scale)); higher = more stable (slower turnover). As to conditions: genetic background: wild type; temperature: 30 C. The method, then:
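Multiplexed protein stability (MPS) profiling in S. cerevisiae. Random 12-aa peptides (tFT-X12 library) are fused to the C-terminus of a sfGFP-mCherry tandem fluorescent timer, after mCherry and a GGGS linker. Cells are FACS-sorted into 8 mCherry/sfGFP bins and deep-sequenced. The protein stability index (PSI) is the read-weighted bin average, scaled from 0 (unstable) to 1 (stable). Only peptides with >10 reads are reported; cells were grown at 30 °C in SC-His with glucose.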
Take GRTPGNALKRND: the protein stability index stood at 0.632 ± 0.03.

For the sequence GRVAPNANAVKF, the protein stability index amounted to 0.607 ± 0.07.

GRVEDAFSGGGI registered a protein stability index of 0.643 ± 0.089. Under GRVRYRGSRFLG stands 0.656 ± 0.013; under GRVSSTRKVGAI, 0.678 ± 0.022.

GRWGGRLSWAPG came in with a protein stability index of 0.628 ± 0.03.

Consider GRWRCVYRGCGG, for which the protein stability index stood at 0.646 ± 0.076. As to GRYAGFESRFGA, the protein stability index amounted to 0.666 ± 0.018. GRYCDKRLGIVG displayed a protein stability index of 0.699 ± 0.011. Consider GRYLRRDLVGVF, for which the protein stability index worked out at 0.606 ± 0.051.

With GRYRRRLPLCRG, the protein stability index turned out to be 0.663 ± 0.055. GRYSGSFWSFWS had a protein stability index of 0.719 ± 0.023.

GSARLPLWSLPP: the protein stability index came out at 0.793 ± 0.0082. In the case of GSAVMLGVSVRV, the protein stability index was determined as 0.581 ± 0.043. GSCTPLPSIDFD had a protein stability index of 0.648 ± 0.052. In the case of GSEAGEPRAGRA, the protein stability index was 0.675 ± 0.015. The result for GSGGVGVTSGGK reads 0.682 ± 0.056; that for GSGLVTRTSLDY, 0.726 ± 0.045. As for GSGQPDPRDAIG, the protein stability index was determined as 0.677 ± 0.057. GSGTRNLLFIKS returned a protein stability index of 0.6708 ± 0.001. Turning to GSGWRSRRAPGP, the protein stability index stood at 0.747 ± 0.047. As for GSIWVVGWGQGV, the protein stability index worked out at 0.711 ± 0.032.

Regarding GSKVGGVGWRSG, the protein stability index came to 0.726 ± 0.0095. GSLGWRGLVRFF gave a protein stability index of 0.611 ± 0.013.

With GSLHGTSAPPRF, the protein stability index amounted to 0.731 ± 0.15. Sequence GSLPPCPSHAPF displayed a protein stability index of 0.698 ± 0.061. Sequence GSMVRSDSFLRP showed a protein stability index of 0.66 ± 0.019. Take GSRRSGITSYAN: the protein stability index stood at 0.687 ± 0.011. Under GSRVRGVMWSFL stands 0.771 ± 0.067.

Regarding GSSCRFGDNTVG, the protein stability index was determined as 0.738 ± 0.046. The sequence GSSDTYLLSLVD returned a protein stability index of 0.733 ± 0.052. GSSMLFIEQEVE registered a protein stability index of 0.683 ± 0.028. The result for GSSPIDGLEVYG reads 0.654 ± 0.041; that for GSSPRVFPPRFC, 0.725 ± 0.033. Sequence GSTLWGRAWGAR registered a protein stability index of 0.724 ± 0.02.

GSVQHRRRDRCD: the protein stability index worked out at 0.676 ± 0.038. Under GSVRGFGGGGEE stands 0.652 ± 0.049. Sequence GSWGWHVRGSGV showed a protein stability index of 0.598 ± 0.037. GSYDLMGFQFFI gave a protein stability index of 0.632 ± 0.029. In turn, GTCQALARRTGD came in with a protein stability index of 0.686 ± 0.061. GTCWAGAMGVVG came in with a protein stability index of 0.714 ± 0.043. Regarding GTCWGGAMGVVG, the protein stability index was found to be 0.728 ± 0.042. The sequence GTDVFTQAVRNC had a protein stability index of 0.641 ± 0.019. For GTFCLFTPCVWM, the protein stability index amounted to 0.716 ± 0.044.

GTKDRSNMIRKS: the protein stability index stood at 0.6702 ± 0.0044. For the sequence GTKGGPSGLEPP, the protein stability index stood at 0.7125 ± 0.0018. GTLLRINLMTIQ yielded a protein stability index of 0.663 ± 0.02. As to GTLYLRVTSKEK, the protein stability index is 0.717 ± 0.044. Sequence GTPWHLRPRCPF returned a protein stability index of 0.749 ± 0.013.

GTSCPCGGALRP: the protein stability index was found to be 0.776 ± 0.035. GTSSTPPPPAPP showed a protein stability index of 0.661 ± 0.016. Sequence GTWGGGGWSCES displayed a protein stability index of 0.725 ± 0.076. As for GVAGGGTVVGAQ, the protein stability index was 0.693 ± 0.017. The result for GVARGFGVVVPA reads 0.6427 ± 0.0044. The result for GVAWGAGVGMMW reads 0.732 ± 0.025; that for GVCWVTAGLWAI, 0.6098 ± 0.0021; that for GVGAPGARGVWG, 0.748 ± 0.048.

GVGAWGGMCGVV displayed a protein stability index of 0.724 ± 0.0082. GVGCGGGGSSCA displayed a protein stability index of 0.703 ± 0.11. Turning to GVGGCRVRGLGA, the protein stability index amounted to 0.691 ± 0.017. For the sequence GVGGENRRNGTV, the protein stability index is 0.721 ± 0.11. GVGGGVMGVGRV came in with a protein stability index of 0.665 ± 0.01. Turning to GVGQEGVGGRAV, the protein stability index worked out at 0.707 ± 0.03. GVGWGSSWVGYG: the protein stability index was determined as 0.898 ± 0.092.

The values above are taken from the supplement of paper PMC10724198.
